Measured values published in paper PMC4996947, “Rapid α-oligomer formation mediated by the Aβ C terminus initiates an amyloid assembly pathway” (Nature Communications, 2016).
“And” between values parts separate entries of the source, which are not always exact repeats. Equal values may be shown once. Ends that are not written are not given here.

Experiments:
[1] = Segmental HX-MS of the C-terminal pepsin fragment (35–42/35–40) of mature fibrils; assay type: physicochemical; conditions: mature amyloid fibrils, pepsin cleavage between Leu34 and Met35
Description: According to our hypothesis and designs of the peptide models, we expected the Aβ segments of the hybrid peptides to not be involved in amyloid core formation. […] Since the typical α-helix band in FTIR overlaps the characteristic polyQ amyloid band at ∼1,657 cm^−1 (ref. [23]), it is not expected that we might observe any α-helical structure in these fibrils that might be analogous to the HTT^NT α-helix in HTT exon1 fibrils. To address whether a portion of the Aβ segment might be involved in stable β-structure in the fibrils, we used hydrogen–deuterium exchange evaluated by mass spectrometry (HX-MS). […] The absence of a large amount of β-structure within the Aβ segment of the polyQ-Aβ hybrid fibrils is consistent with the total β-structure content of about 50% seen in the CD spectra of the final amyloid suspensions (Figs 2j, 3h and 4j) of peptides containing about 50% Gln residues. […]
All HX-MS data were analysed using an Agilent 1100 series single quadruple ESI mass spectrometer. Aggregates were washed and incubated in D2O and the exchange reactions analysed after an appropriate exchange time. Global HX was analysed by simultaneous dissolution and MS analysis of the exchange reaction using a T-tube front end to the MS[62]; data were not corrected for back-exchange. […]

[2] = cited from earlier work
Experimental: Table 1 Amyloid nucleation and stabilization data. | column: Cr (μM) || We also addressed whether the Aβ appendages of these hybrid peptides provide any additional stability to the Q23 amyloid cores, in analogy to the stabilizing effect of HTT^NT on HTT exon1 amyloid. Stabilities were assessed by determining the concentration of monomer present when the amyloid assembly reaction reaches equilibrium (Supplementary Fig. 5)[41]. […] The results (Table 1) indicate some interesting trends.

[3] = biological target: T1, Aβ42 aggregates (Homo sapiens, UniProt P05067); assay: Global hydrogen–deuterium exchange mass spectrometry (HX-MS) of aggregates; assay type: physicochemical; conditions: for Global HX incorporation: not corrected for back-exchange
T1 construct: purchased Keck Center (Keck Biotechnology Center at Yale University); obtained pre-purified
T1 sequence (P05067 672-713): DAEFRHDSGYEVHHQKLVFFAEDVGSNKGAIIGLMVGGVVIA
Experimental: All HX-MS data were analysed using an Agilent 1100 series single quadruple ESI mass spectrometer. Aggregates were washed and incubated in D2O and the exchange reactions analysed after an appropriate exchange time. Global HX was analysed by simultaneous dissolution and MS analysis of the exchange reaction using a T-tube front end to the MS[62]; data were not corrected for back-exchange. Segmental exchange was performed as described. Briefly, fibrils were recovered from the exchange reaction by centrifugation (20,800g, 30 min), and in a 4 °C room to 20 μl ice-cold 8 M Gdn.HCl plus 0.1% formic acid was added to the pellets and mixed for 10 s, then 100 μl pepsin agarose (Sigma-Aldrich) in 0.1% cold formic acid was added and mixed for 10 s. The sample was immediately centrifuged to remove the immobilized pepsin (20,800g, 30 s) and the supernatant subjected to 4 °C LC-MS analysis.

[4] = Spontaneous aggregation kinetics by sedimentation-HPLC assay (disappearance of monomer); assay type: physicochemical; conditions: 22 μM start, after 35 days, PBS, 37 °C
Experimental: Disaggregated peptide stock solutions were first checked for approximate concentration. All concentrations, for setting up the reaction and for assaying kinetics time points, were determined from integrated A214 HPLC (Agilent XDB-C18 4.6 × 50 mm column) peaks using standard curves individually constructed for each peptide from standard stock solutions calibrated via the A215 absorption[23][41]. […] Sodium azide was added to 0.05% (w/v) and pH adjusted to 7.4. After filtration through a 0.2 μm filter unit (Anotop 10) to get rid of aggregates, the solution was held at 4 °C while the t=0 concentration was determined (∼30 min). The reaction mixture was moved to 37 °C and kinetics monitored by the sedimentation and ThT assays on reaction aliquots and by CD.
Duplicate time points were removed periodically, centrifuged 30 min at 436,000g followed by HPLC analysis of monomer concentration from the carefully removed supernatant[41].
For sedimentation and ThT kinetics, as well as kinetics underlying the n* and Cr determinations and inhibition kinetics studies, each plotted data point is derived from analysis of 2–3 independent reaction aliquots. Each aggregation study was independently carried out twice, with similar results obtained.

## Aβ40: full-length Aβ peptide ending at residue 40
[1]
  Exchange of the C-terminal 35–42/35–40 fragment after exposure of fibrils to D2O: essentially fully exchanged
[2]
  Cr of fibrils: 1.06 ± 0.18 µM

## Aβ42: full-length Aβ peptide ending at residue 42
[3]; Aβ42 aggregated alone
  Global HX incorporation: 14.8±1.2 deuteriums
[3]; Aβ42 aggregates grown in the presence of K10G2Aβ31–42
  Global HX incorporation: 25.6±1.2 deuteriums
[3]; Aβ42 aggregates grown with K10G2Aβ31–42 vs Aβ42 alone
  Newly unprotected amide hydrogens: ~11
[1]
  Exchange of the C-terminal 35–42/35–40 fragment after exposure of fibrils to D2O: resists exchange
[2]
  Cr of fibrils: 0.11 ± 0.01 µM and 0.11 µM

## H-KKQQQQQQQQQQQQQQQQQQQQQQQKKAIIGLMVGGVVIA-OH
other
  fraction of reaction mixture sedimentable at early time: 15%

## KKKKKKKKKKGGIIGLMVGGVVIA [K10G2Aβ31–42]
[4]
  Monomer remaining in the reaction mixture: ~13 µM
